According to patent publication US20240254200A1 (APITBIO, published 2024):

B1: AbS0 antibody (AbS0 Fab converted into human IgG1) (antibody, V domains shown)
VH: EVQLVESGGGLVQPGGSLRLSCAASGFTFSTYAMSWVRQAPGKGLEWVSSISQSGGYTNYADSVKGRFTISRDNSKNTLYLQMNSLRAEDTAVYYCAKVIYASLDYWGQGTLVTVSS
VL: DIQMTQSPSSLSASVGDRVTITCRASQSIASYLNWYQQKPGKAPKLLIYATSRLQSGVPSRFSGSGSGTDFTLTISSLQPEDFATYYCQQSYSSPYTFGQGTKVEIK
notes: also called AbS0 mAb; wild type AbS0
B2: AbS0 Fab phage (Fab, V domains shown)
VH: B1 VH
VL: B1 VL

What was measured:
[1] = target: T1, L1CAM on the human ovarian cancer cell line SKOV3 (human, UniProt P32004 20-1257); assay: flow cytometry on SKOV3 cells, anti-human IgG Fc-FITC
T1 construct: whole, on cells; The cells express L1CAM but not preS1; also called SKOV3 cells
T1 sequence (P32004 20-1257): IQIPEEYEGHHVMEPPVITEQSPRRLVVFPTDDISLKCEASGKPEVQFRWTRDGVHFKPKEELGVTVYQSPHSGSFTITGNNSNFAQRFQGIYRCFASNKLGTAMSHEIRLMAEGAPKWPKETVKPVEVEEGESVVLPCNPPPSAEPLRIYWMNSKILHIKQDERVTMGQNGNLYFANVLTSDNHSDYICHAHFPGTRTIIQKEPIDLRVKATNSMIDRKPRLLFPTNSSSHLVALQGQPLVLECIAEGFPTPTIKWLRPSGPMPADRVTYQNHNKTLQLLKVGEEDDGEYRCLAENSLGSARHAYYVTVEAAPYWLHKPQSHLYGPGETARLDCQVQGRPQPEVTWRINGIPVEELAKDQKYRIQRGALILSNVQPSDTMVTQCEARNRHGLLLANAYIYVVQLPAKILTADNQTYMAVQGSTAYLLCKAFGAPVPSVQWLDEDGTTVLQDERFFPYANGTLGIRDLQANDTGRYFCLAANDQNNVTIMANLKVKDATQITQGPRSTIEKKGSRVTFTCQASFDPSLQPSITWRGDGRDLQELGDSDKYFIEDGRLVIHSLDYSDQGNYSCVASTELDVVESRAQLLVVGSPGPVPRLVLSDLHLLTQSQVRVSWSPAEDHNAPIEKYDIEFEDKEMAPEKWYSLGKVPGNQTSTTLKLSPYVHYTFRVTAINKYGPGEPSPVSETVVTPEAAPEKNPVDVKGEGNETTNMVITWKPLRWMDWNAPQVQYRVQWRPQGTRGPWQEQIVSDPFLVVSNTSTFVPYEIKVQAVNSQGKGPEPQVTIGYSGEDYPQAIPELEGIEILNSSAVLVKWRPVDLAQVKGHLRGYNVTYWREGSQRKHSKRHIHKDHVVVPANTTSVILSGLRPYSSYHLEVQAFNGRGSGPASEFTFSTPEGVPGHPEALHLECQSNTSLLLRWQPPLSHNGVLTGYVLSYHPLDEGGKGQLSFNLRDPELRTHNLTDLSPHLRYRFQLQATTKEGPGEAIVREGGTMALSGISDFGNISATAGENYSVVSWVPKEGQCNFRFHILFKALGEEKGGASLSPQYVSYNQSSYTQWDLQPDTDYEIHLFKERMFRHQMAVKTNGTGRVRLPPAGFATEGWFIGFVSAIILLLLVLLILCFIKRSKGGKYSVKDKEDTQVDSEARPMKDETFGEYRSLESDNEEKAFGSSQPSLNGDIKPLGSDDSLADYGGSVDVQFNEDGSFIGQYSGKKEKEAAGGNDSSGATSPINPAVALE

[2] = target: T2, GST-preS1(1-56)-strep of HBV genotype A (hepatitis B virus genotype A, UniProt P08515 1-218 = GST); assay: indirect ELISA, GST-preS1(1-56)-strep coated, serially diluted AbS0, anti-human IgG Fc-HRP
T2 construct: Expressed in E. coli; also called recombinant preS1 of HBV genotype A; preS1 antigen of genotype A; not shown: strep tag
T2 sequence (P08515 whole entry): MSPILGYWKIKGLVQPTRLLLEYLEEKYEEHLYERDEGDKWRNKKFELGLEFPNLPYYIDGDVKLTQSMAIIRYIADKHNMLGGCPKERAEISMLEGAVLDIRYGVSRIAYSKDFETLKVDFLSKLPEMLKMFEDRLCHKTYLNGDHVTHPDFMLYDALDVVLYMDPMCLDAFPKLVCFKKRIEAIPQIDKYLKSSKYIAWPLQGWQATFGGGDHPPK

[3] = target: T3, GST-preS1(1-56)-strep of HBV genotype B (hepatitis B virus genotype B, UniProt P08515 1-218 = GST); assay: as above
T3 construct: Expressed in E. coli; also called recombinant preS1 of genotype B; not shown: strep tag
T3 sequence (P08515 whole entry): as above

[4] = target: T4, GST-preS1(1-56)-strep of HBV genotype C (hepatitis B virus genotype C, UniProt P08515 1-218 = GST); assay: as above
T4 construct: Expressed in E. coli; also called wild type preS1 antigen; recombinant preS1 of genotype C; not shown: strep tag
T4 sequence (P08515 whole entry): as above

[5] = target: T5, GST-preS1(1-56)-strep of HBV genotype D (hepatitis B virus genotype D, UniProt P08515 1-218 = GST); assay: as above
T5 construct: Expressed in E. coli; also called recombinant preS1 of genotype D; not shown: strep tag
T5 sequence (P08515 whole entry): as above

[6] = target: T2, GST-preS1(1-56)-strep of HBV genotype A; assay: indirect ELISA, genotype A GST-preS1(1-56)-strep (NPLGFFP) coated, serially diluted antibody
[7] = target: T2, GST-preS1(1-56)-strep of HBV genotype A; assay: BLI (Octet RED384), antibody captured on anti-human Fc tips, antigen 25-1.5625 nM in solution, 1:1 model
[8] = target: T4, GST-preS1(1-56)-strep of HBV genotype C; assay: indirect ELISA, genotype C GST-preS1(1-56)-strep coated (100 ng), antibody from culture supernatant, anti-human IgG Fc-HRP
[9] = target: T6, BSA (Bos taurus, UniProt P02769); assay: indirect ELISA of monoclonal Fab phage on coated antigen, anti-M13-HRP
T6 construct: control antigen of the phage ELISA; also called bovine serum albumin
T6 sequence (P02769 25-607 limits assumed): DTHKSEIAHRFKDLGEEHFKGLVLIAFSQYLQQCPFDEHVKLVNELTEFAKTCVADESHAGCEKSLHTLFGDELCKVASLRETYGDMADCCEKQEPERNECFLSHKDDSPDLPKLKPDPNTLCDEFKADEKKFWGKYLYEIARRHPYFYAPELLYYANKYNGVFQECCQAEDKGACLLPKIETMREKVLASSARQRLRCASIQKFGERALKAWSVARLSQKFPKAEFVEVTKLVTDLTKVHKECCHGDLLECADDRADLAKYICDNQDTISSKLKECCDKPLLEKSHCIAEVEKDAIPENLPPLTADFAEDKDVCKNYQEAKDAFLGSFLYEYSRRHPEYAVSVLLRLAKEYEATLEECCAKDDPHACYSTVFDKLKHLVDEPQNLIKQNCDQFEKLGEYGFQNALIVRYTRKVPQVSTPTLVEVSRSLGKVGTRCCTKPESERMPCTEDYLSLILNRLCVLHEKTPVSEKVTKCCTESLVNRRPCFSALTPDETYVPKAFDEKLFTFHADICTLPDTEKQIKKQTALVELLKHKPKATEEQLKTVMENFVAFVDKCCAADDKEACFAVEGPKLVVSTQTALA

Row | Binder | binding result [1] | EC50 (read off the curve) [2] [mg/L] | EC50 (read off the curve) [3] [mg/L] | EC50 (read off the curve) [4] [mg/L] | EC50 (read off the curve) [5] [mg/L] | EC50 (read off the curve) [6] [mg/L] | Kd [7] [nM] | koff [7] [s⁻¹] | kon [7] [M⁻¹ s⁻¹] | EC50 (read off the curve) [8] [mg/L] | binding result [9]
1 | B1 | no binding | ~0.04 | ~0.04 | ~0.04 | ~0.04 | ~0.06 | 0.5 | 0.000194 | 392000 | ~0.003 | –
2 | B2 | – | – | – | – | – | – | – | – | – | – | no binding
